Measurements published in the supplement of paper PMC7877785.
± gives the uncertainty stated by the source.

Assay: self-splicing fitness, log relative to wild type (ln ratio); higher = more splicing; Tetrahymena group I intron in knt gene, E. coli kanamycin selection, DiMSum; sequences stand for … in CUCUCU…GGAGGGAAAAGUUAUCAGGCAUGCACCUGGUAGCUAGUCUUUAAACCAAUAGAUUGCAUCGGUUUAAAAGGCAAGACCGUCAAAUUGCGGGAAAGGGGUCAACAGCCGUUCAGUACCAAGUCUCAGGGGAAACUUUGAGAUGGCCUUGCAAAGGGUAUGGUAAUAAGCUGACGGACAUGGUCCUAACCACGCAGCCAAGUCCUAAGUCAACAGAUCUUCUGUUGAUAUGGAUGCAGUUCACAGACUAAAUGUCGGUCGGGGAAGAUGUAUUCUUCUCAUAAGAUAUAGUCGGACCUCUCCUUAAUGGGAGCUAGCGGAUGAAGUGAUGCAACACUGGAGCCGCUGGGAACUAAUUUGUAUGCGAAAGUAUAUUGAUUAGUUUUGGAGUACUCGUGGUCG
Procedure, shortened: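 The eight P1ex-region nucleotides of an intron in the knt kanamycin-resistance gene on pET-22b(+) were all randomised and the library put into E. coli BL21(DE3). Six replicate transformations were grown overnight at 37°C or 30°C on LB agar with or without 25 μg/mL kanamycin, together with 100 μg/mL carbenicillin, 50 μM IPTG and 0.2% rhamnose. Colonies were pooled and amplicon-sequenced on an Illumina HiSeq 2500. Fitness from DiMSum is the error-weighted combination of wild-type-normalised replicate fold changes, kanamycin over none.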

| Sequence | self-splicing fitness (ln) (30 °C) | self-splicing fitness (ln) (37 °C) |
| --- | --- | --- |
| GAUUAGCAAUAUUACGCAAG | -2.11 ± 0.14 | -1.3 ± 0.13 |
| GAUUAGCAAUAUUACGCACU | -0.846 ± 0.15 | 0.415 ± 0.18 |
| GAUUAGCAAUAUUACGCCAA | -3.48 ± 0.31 | -1.91 ± 0.25 |
| GAUUAGCAAUAUUACGCCCU | -0.409 ± 0.49 | – |
| GAUUAGCAAUAUUACGCGAA | -3.47 ± 0.29 | -1.44 ± 0.21 |
| GAUUAGCAAUAUUACGCUAA | -3.24 ± 0.39 | -1.89 ± 0.35 |
| GAUUAGCAAUAUUACGCUCG | -1.11 ± 0.12 | -0.397 ± 0.15 |
| GAUUAGCAAUAUUACGCUCU | -1.26 ± 0.41 | -0.272 ± 0.27 |
| GAUUAGCAAUAUUACGGAGA | -2.78 ± 0.25 | -2.19 ± 0.24 |
| GAUUAGCAAUAUUACGGAGU | -2.77 ± 0.19 | -2.5 ± 0.23 |
| GAUUAGCAAUAUUACGGGGG | -4.1 ± 0.34 | -2.72 ± 0.24 |
| GAUUAGCAAUAUUACGGUAA | -1.83 ± 0.23 | -1.5 ± 0.17 |
| GAUUAGCAAUAUUACGGUCU | -3.15 ± 0.32 | -2.07 ± 0.18 |
| GAUUAGCAAUAUUACGUAUU | -3 ± 0.12 | -1.65 ± 0.1 |
| GAUUAGCAAUAUUACGUCCA | -2.04 ± 0.21 | 0.198 ± 0.18 |
| GAUUAGCAAUAUUACGUCGC | -1.91 ± 0.15 | -0.838 ± 0.16 |
| GAUUAGCAAUAUUACGUCGU | -2.56 ± 0.19 | -1.13 ± 0.17 |
| GAUUAGCAAUAUUACGUGAC | -2.89 ± 0.12 | -0.588 ± 0.094 |
| GAUUAGCAAUAUUACGUUGU | -2.91 ± 0.23 | -2.15 ± 0.28 |
| GAUUAGCAAUAUUACGUUUG | -2.64 ± 0.15 | -0.801 ± 0.16 |
| GCAAAGCAAUAUUACGACCA | -0.267 ± 0.15 | -0.678 ± 0.19 |

| Sequence | self-splicing fitness (ln) (30 °C) | self-splicing fitness (ln) (37 °C) |
| --- | --- | --- |
| GCAAAGCAAUAUUACGAGAG | -2.7 ± 0.095 | -1.89 ± 0.12 |
| GCAAAGCAAUAUUACGAGCU | -3.48 ± 0.16 | -1.5 ± 0.12 |
| GCAAAGCAAUAUUACGAUGC | -3.46 ± 0.24 | -2.53 ± 0.32 |
| GCAAAGCAAUAUUACGCAGA | – | -2.76 ± 0.3 |
| GCAAAGCAAUAUUACGCAGG | -2.33 ± 0.13 | -2.02 ± 0.19 |
| GCAAAGCAAUAUUACGCCUG | -2.21 ± 0.1 | -1.12 ± 0.12 |
| GCAAAGCAAUAUUACGGAAA | -1.88 ± 0.18 | -1.66 ± 0.19 |
| GCAAAGCAAUAUUACGGCAU | -0.675 ± 0.095 | 0.0956 ± 0.1 |
| GCAAAGCAAUAUUACGGGCU | -2.56 ± 0.12 | -2.45 ± 0.2 |
| GCAAAGCAAUAUUACGGGGG | -3.28 ± 0.2 | -1.87 ± 0.18 |
| GCAAAGCAAUAUUACGGGGU | -3.73 ± 0.15 | -2.5 ± 0.15 |
| GCAAAGCAAUAUUACGGUCU | -1.38 ± 0.087 | 0.608 ± 0.1 |
| GCAAAGCAAUAUUACGGUGA | -0.987 ± 0.079 | 0.221 ± 0.098 |
| GCAAAGCAAUAUUACGUAGA | -1.64 ± 0.074 | -1.13 ± 0.095 |
| GCAAAGCAAUAUUACGUAGG | -1.52 ± 0.05 | -0.897 ± 0.074 |
| GCAAAGCAAUAUUACGUAUG | -2.9 ± 0.11 | -2.71 ± 0.2 |
| GCAAAGCAAUAUUACGUAUU | -2.65 ± 0.075 | -1.29 ± 0.081 |
| GCAAAGCAAUAUUACGUCAU | -2.25 ± 0.096 | -1.37 ± 0.091 |
| GCAAAGCAAUAUUACGUCGA | -1.83 ± 0.091 | -0.578 ± 0.094 |
| GCAAAGCAAUAUUACGUUGU | -3.71 ± 0.15 | -2.99 ± 0.15 |
| GCAAAGCAAUAUUACGUUUU | -2.95 ± 0.11 | -3 ± 0.18 |
